The data set deals with HalTzlAAA homotrinucleopeptide (synthetic (designed)). The data set is described as follows: fluorescence anisotropy. The following applies: none.

For CCAGAGAGCCUGGGAGCUCUCUGG [ΔTAR], the Kd – broadly, the concentration at which binding is half-saturated – is 161 µM. In turn, CCAGAUUUGAGCCUGGGAGCUCUCUGG [TAR UUU] yielded a Kd of 30.1 µM.

Values taken from publication PMC12692541.
